# Test results published in the nanobody polyreactivity screen of Harvey et al. (2022).
# Assay: yeast display, Sf9 membrane polyspecificity reagent, FACS + sequencing; frameworks hold sequencing errors
# Method in brief: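 Synthetic nanobody libraries on Saccharomyces cerevisiae BJ5465 were galactose-induced for 36–48 hours, stained 1 hour at 4 °C with 10% biotinylated, detergent-solubilized Sf9 membrane reagent and enriched on streptavidin microbeads. FACS then separated cells into low and high (top ~1%) gates by anti-HA (expression) and streptavidin (reagent binding) fluorescence. Genes were colony-PCR amplified, MiSeq 2 × 250 sequenced and CDR-length filtered. A clone's polyreactivity label is that of its gate of origin.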
row,Sequence,polyreactivity (PSR sort gate)
1,QDQLVESGGGLVQAGGSLRLSCAASGSIFGGYGMGWYRQAPGKERELVAAITSGSSTYYADSVKGRFTISRDNAKNTVYLQMNSLKPEDTAVYYCAARPYPHSAYQGDYWGRGTQVTVSS,low polyreactivity
2,QDQLVESGGGLVQAGGSLRLSCAASGSIFGSYAMGWYRQAPGKEMELVAAISYSGASTYYADSVKGRFTISRDNAKNTVYLQMNSLKPEDTAVYYCNKDPRWRRFNYWGQGTQVTVSS,high polyreactivity
3,QDQLVESGGGLVQAGGSLRLSCAASGSIFHGYGRGWYRQAPGKERELVASITWIGGDTYYADSVKGRFTISRDNPKNTVYLQMNSLKPEDTAVYYCNAEWVVTYIYDYWGQGTQVTVSS,low polyreactivity
4,QDQLVESGGGLVQAGGSLRLSCAASGSIFIQYAMGWYRQAPGKERQFVAAITSGGGSTYYADSVKGRFTISRDNAMNTVYLQLNSLKPEDTAVYYCAVDRTRRPALPFVTLDRGYWGQGTQVTVSS,low polyreactivity
5,QDQLVESGGGLVQAGGSLRLSCAASGSIFPDYVMGWYRQAPGKERELVAAISASGGSTYYADSVKGRFTISRDNEKNTVYLKMNSLKPEDTAVYYCNASPKTYLRRKYDYWGQGTQVTVSS,high polyreactivity
6,QDQLVESGGGLVQAGGSLRLSCAASGSIFPSNTMGWYRQAPGKERELVAAITGSGGSTYYADSVKGRFTISRDNAKNTVYLQMNSLKPEDTAVYYCAARYRVDGVKYGYWGQGTQVTVSS,high polyreactivity
7,QDQLVESGGGLVQAGGSLRLSCAASGSIFRVYAMGRYRQAPGKERELVAAISSIVGSTYYADSVKGRFTISRDNAKNSVYLQMNSLKPEDTAVYDCNKEGTWPRTGSEYDSWGQGSQVTVSS,low polyreactivity
8,QDQLVESGGGLVQAGGSLRLSCAASGSIFSFYAMGWYSQATGKERELVAGIRWRGGTSTFYADSVKGRFTISRDNEKNTVYLQMNSLNPEDTAVYYCADKRRTGGNGYWGQGTQVTVSS,high polyreactivity
9,QDQLVESGGGLVQAGGSLRLSCAASGSIFTYNAMGWYRPAPGKERELVAAINTSGSTNYADSVKGRFTISRDNAKNTVYLQKYSLKPEDTAVYYCAAGIVVTVYDYWRQGTQVTVSS,low polyreactivity
10,QDQLVESGGGLVQAGGSLRLSCAASGSIFVNNAMGWYRQAPGKERELVAAISRSGGNTYYADSVKGRFTISRDNAKNTVYLQMNSLKPEDTAVYYCAADFRGRYGYWGQGTQVTVSS,high polyreactivity
11,QDQLVESGGGLVQAGGSLRLSCAASGSIFWYYGMGWYRQAPGKERELVAAISSGGSTNYADSVKGRFAISRDNAKNTVYLQMNSLKPEDTAVYYCAVRFTFPRYPASYSRYYYWGQGTQVTVSS,high polyreactivity
12,QDQLVESGGGLVQAGGSLRLSCAASGSIFYAYTMGWYRQAPGKEMELVASITKSGGSTYYADSVKGRFTISRDNAKNTVYLQMNSLKPEDTAVYYCAAVVGRNRTRSYGYWGQGTQVTVSS,high polyreactivity
13,QDQLVESGGGLVQAGGSLRLSCAASGSIFYRNAMGWYIQATGKERELVAAISSDGSTNYADSVKGRFTISRDNAKNTVYLQMNSLKPEDTAVYFCAAPWTQILDYWGQGTQVTVSS,low polyreactivity
14,QDQLVESGGGLVQAGGSLRLSCAASGSLFDLYAMGWYRQAPGKERELVAAISWSDSRTYYADSVKGRFTISRDNAKNTVYLQMNSLKPEDTAVYYCAADYRYPDNYGGYDYWGQGTQVTVSS,low polyreactivity
15,QDQLVESGGGLVQAGGSLRLSCAASGSTFETNAMGWYRQAPGKERELVAAISGRGGSTYYADSVKGRFTFSRDNAKNTVYLQMNSLKPEDTAVFYCDATYGTGRRSKYGYCGQGTQVTVSS,high polyreactivity
16,QDQLVESGGGLVQAGGSLRLSCAASGSTFGDYTMGSYRQAPGKEREFVAAITVSVGSTYFADSVKGRFTISRDTAKNTVYLQMNSVKPEDTAFYYCNTDRDPYYHYFDGLYYYWGQGTQVTVSS,low polyreactivity
17,QDQLVESGGGLVQAGGSLRLSCAASGSTFGFNAMGWDRQAPGKERELVAAITWSGGSTYYADSVKGRFTISRDNAKNTVYLQMNSLKPEDTAVYYCARETYGDYVHYDYWGQGTQVTLSS,low polyreactivity
18,QDQLVESGGGLVQAGGSLRLSCAASGSTFKKYALGWYRQAPGKERELVAAITGSGGRTYYADSVKGRFTISRDNAKNTVYLQMNSLKPEDTAVYYCAARRYLSGGYYYCGQGTQVTVSS,high polyreactivity
19,QDQLVESGGGLVQAGGSLRLSCAASGSTFNAYAMGWYRQAPGKERQLVASITKSGGRTYYADSVKRRFTISRDNAKNTVYLQMNRLKPEDSAVYYCAARYVWRSTHHRGSTYDYWGQGTQVTVSS,high polyreactivity
20,QDQLVESGGGLVQAGGSLRLSCAASGSTFNIYAMGWYRQAHGTVRELVARITSGGSTNYADSVKGRFTISRDNAKNTVYLQMKSLKPEDTAVYYCAARLKWGLPTYDYWGQGTQVTVSS,high polyreactivity
21,QDQLVESGGGLVQAGGSLRLSCAASGSTFPYNVMGWYRQAPGKEREFVAAISSSSGSTYYADSVKGRFTISRDNAKNTVYLQLNSLKPEDTAVYYCARRHPRQRQDGKVDYWGQGTQVTVSS,low polyreactivity

row,Sequence,polyreactivity (PSR sort gate)
1,QDQLVESGGGLVQAGGSLRLSCAASGSTFRRYTMGWYRQAPGKERELVAVITKSGGSTYYADSVKGRFTISRDNAKNTVYLQMNRLKPEDTAVYYCAAGVAWRFYSWLGHFNGFDYWGQGTQVTVSS,high polyreactivity
2,QDQLVESGGGLVQAGGSLRLSCAASGSTFSYYAMGWYRQAPGKERELVAAITWSDGSTYYADSVKGRFTISRDYAKNTVYLQMNSLKPEDTAVYYCNAEISQLDGVTFKYDYWGQGTQVTVSS,low polyreactivity
3,QDQLVESGGGLVQAGGSLRLSCAASGSTFVKYAMGWYRQAAGTERELVASITKRGGSTYYADSVKGRFTISRDKAKNTVYLQMNSLKPEDTAVYYCNAARGLYNAPKYGSIGFDYWGQGTQVTESS,high polyreactivity
4,QDQLVESGGGLVQAGGSLRLSCAASGSTFWFYAMGWSRQAPGKEWELVAVISNSGSTYYADSVKGRFTISRDNAKNTVYLQLNSLKPEDTAVYYCNTDGGGDSYWYDYWGQGTQVTVSS,low polyreactivity
5,QDQLVESGGGLVQAGGSLRLSCAASGSTISGSAMGWYRQAPGKVRELVATMSRGGSTTYADSVKGRFTISRDNAKNTVYLQMNSLKPEDTAVYYCAAQTYVWWVKYHSGGQGTQVTVSS,low polyreactivity
6,QDQLVESGGGLVQAGGSLRLSCAASGSTIYAYAMGWYRQAPGKERELVARIRWRGGRTYYADSVKGRFTISRDNAKNTVYLRMNSLKPEDTAVYYCAAYKRRSNGRYWTYDYWGQGTQVTVSS,high polyreactivity
7,QDQLVESGGGLVQAGGSLRLSCAASGSTLAYNAKGWYRPAPGKERELVAGIRGSGGSTYYADSVKGRFTISRDNAKNTVYLLMNSLKPEDTAVYDCAAAGYYYYLYAAYYYWGQGTQVTVSS,low polyreactivity
8,QDQLVESGGGLVQAGGSLRLSCAASRNIFYINTMGWYIQAPGKERALVAAIDASDGTTYYADSVKGRFTISRDNAKNTVYLQMNSVKPEDTAVYYCATRRGYDSVYYFYTLWYYYWGQGTQVTVSS,low polyreactivity
9,QDQLVESGGGLVQAGGSLRLSCAASVITFDLYAMGWYRQAPGKERELVAAISISSTSTYYADSVKGLFTISRDNAKNTVYLQMISLKPEDTAGYYCNAVPSSKTFWFDYWGLGTQVTVSS,low polyreactivity
10,QDQLVESGGGLVQAGGSLRLSCAASVSIFGYYAMGWYRQAHGKERELVADITSSGSTYYADSVKGRFTISRDNAKNTVYLQMNSLKPEDTAVYYCAADQYYLGSIDGFEYWGQGTQVTVSS,low polyreactivity
11,QDQLVESGGGLVQAGGSLRLSCAAYGRTFVPYAMGWYRQAPGKEREFVAVITWGGGSTYYADSVKGRFTISRDNAKNTVYLQMNSLKPEDTAVYYCAARNRRATGLGSRYGYWGQGTQVTVSS,high polyreactivity
12,QDQLVESGGGLVQAGGSLRLSCAAYGSIFYVYAMGWYRQAPGKERELVAAIRRTGSSTYYADSVKGRFTISRDNAKNTVSLQMNSLKPEDTAVYYCAASYWRARAGSYDYWGQGTQVTVSS,high polyreactivity
13,QDQLVESGGGLVQAGGSLRLSCADYGNLVYNAKGWSRQAPGKERELVAAISARGGRTYYADSVKGRFTISRDNAKNTVYLQMNSLNPEDTAVYYCAARSYRLDSYYWGQGTQVSVSS,high polyreactivity
14,QDQLVESGGGLVQAGGSLRLSCAPSGFILATNAMGWYRPAPGKERELVAAISYSCGSTNYADSVKGRFTISRDNAKNTVYLQMISLKPVDTAVYYCNDGGSVIWAWYGPVYSWGQGTQVTVSS,low polyreactivity
15,QDQLVESGGGLVQAGGSLRLSCASSGFTFYVYAMGWYRQAPGKERELVAAISRSGSRTYYADSVKGRVTISRDNAQKTVYLQMNSLKPEDTAVYYCARVRPRGLYFVLHYDYWGQGTQVTVSS,high polyreactivity
16,QDQLVESGGGLVQAGGSLRLSCASSGRIFRWYAMGWYRQATGKERELVAAISWSGDSTYYADSVKGRFSISRDNAKNNVYLEMNSLKPEDTAVYYCNYVLYKSDYWGQGTQVTVSS,high polyreactivity
17,QDQLVESGGGLVQAGGSLRLSCSASGFTITHNAMGWYRQAPGKEREFVATISRSGGRTYYADSVKGRFTISRDNAKNTVFFQMNSLKPEDTPVYYCAARTSGYWYSYGSWGQGTQVTVSS,high polyreactivity
18,QDQLVESGGGLVQAGGSLRLSFAASGFTFDHYAMGWSRQAPGKEREYVARITGTGDSTYYADSVKGRFTISRDNAKNTVYLQMNSLKPEDTAVYYCAKDFTGHYPNGFDYWGQGTQVTVSS,low polyreactivity
19,QDQLVESGGGLVQAGGSLRLSFAASGRIIYYNAMGWYRQAPGKERELVAAISFSDGSTYYADSVKGRFTISRDNAKKTVYLQMNSLKPEDTAVYYCAADIGYYYDYWGQGTLVTVSS,low polyreactivity
20,QDQLVESGGGLVQAGGSLRLSFAAYGSTFIVYAMGWYRHAPGKERDLVAAISLDGGSTYYADSVKGRFTISLDNAKNNVYLQMNSLKPEDTAVYYCNADYYANSITYDSWGQGTQVTVSS,low polyreactivity
